Entries after “also recorded” stand apart in the source; their conditions may differ.

Data set [1] relates to TMPRSS2-ERG fusion. It is filed as cell-based, human. As to the method: (§1) DHT was added at the final concentration of 0.9 μM six hours post transfection. Following overnight incubation, cells were then treated with 4 μg/ml α-amanitin for various time periods (0, 2, 6, 12 and 24 hours). Cells were then revived in fresh medium containing 0.9 μM DHT without α-amanitin and RT-PCR was performed for either TMPRSS2-ERG or TMPRSS2-ETV1 fusion.

The subject of data set [2] is TMPRSS2-ETV1 fusion. It is filed as cell-based, human. As to the method:
as §1

Data set [3] has as its system BCR-KCNQ2 fusion. Kind of data set: Nested RT-PCR of induced BCR-KCNQ2 fusion transcript in 293T cells. It is filed as cell-based, human. To be noted: for induction of BCR-KCNQ2 fusion: 293T, 3 days. The text has this: FIGS. 42A-42E. BCR-KCNQ2 fusion induced in 293T cells by chimeric RNAs utilizing/excluding the SINE element for three-way junction formation. FIG. 42A. Examples of chimeric RNA design using Short Interspersed Nuclear Element (SINE) commonly present in the human genome. The designed chimeric RNA forge a three-way junction that could be formed between two SINEs in genomic DNA (in the stem) and chimeric RNA (perpendicular and below the stem). Genomic DNA stems formed by DNA repeats such as SINE/SINE repeats may constitute stems over 300 nts in length. Short lines in gray regions represent base pairings. SINEs are in crimson. FIG. 42B. […] This chimeric RNA has GC content of 52%. FIG. 42B discloses the BCR targeting sequence as SEQ ID NO: 245, the KCNQ2 targeting sequence as SEQ ID NO: 246, and the chimeric sequence as SEQ ID NO: 247. FIG. 42C. Examples of chimeric RNA design targeting DNA sequences of BCR and KCNQ2 genes in the genome which form genomic stems using regions outside of known DNA repeats such as Short Interspersed Nuclear Element (SINE). SINEs are commonly present in the human genome are shown in solid boxes. The DNA stem could range from 10 bp to >100 bp with some mismatches. FIG. 42D. […] This chimeric RNA target intron regions and has GC content of 60.4%. FIG. 42D discloses the BCR targeting sequence as SEQ ID NO: 248, the KCNQ2 targeting sequence as SEQ ID NO: 249, and the chimeric sequence as SEQ ID NO: 250. FIG. 42E. BCR-KCNQ2 fusion can be induced by chimeric RNAs that form 3-way junction with genomic stems using SINE repeats (Set1A) or outside of SINE repeats (Set1B). 293T cells were transfected with chimeric RNA expression plasmid for 3 days and then harvested for nested RT-PCR.

Data set [4] relates to TMPRSS2-ERG fusion. Kind of data set: RT-PCR detection of induced endogenous TMPRSS2-ERG fusion transcript in LNCaP cells expressing input RNA. To be noted: for induction of endogenous TMPRSS2-ERG fusion transcript (RT-PCR): LNCaP cells transfected with input RNA plasmid, DHT for 3 days.
Protocol: (§2) LNCaP cells were cultured in this special medium for 24 hrs prior to plasmid transfection.
(§3) Transfection was performed using Turbofect transfection reagent (Thermo Scientific, #R0531) according to manufacturer's protocol. Briefly, 1 μg of a particular plasmid was first diluted in 100 μl of the serum-free DMEM followed by immediate mixing by pipetting. 4 μl of the transfection reagent was then added to the diluted DNA followed by mixing and incubation for 20 min. The DNA/transfection reagent mixture was then added drop wise to a well containing LNCaP cells in 1 ml medium.
(§4) For treating cultured cells, concentrated DHT stock was diluted as 10× working solutions (for example, for 0.9 μM final concentration, 10× is prepared as 9.0 μM) with the appropriate complete culture medium and used immediately. […] Six hrs post transfection, 111 μl of fresh 10× DHT working solutions was added to each well of 12-wells plate containing 1 ml medium and transfected cells.
(§5) Briefly, cells were suspended in 200 μl of PBS buffer and were then lysed with 400 μl of lysis buffer. The sample was then passed through the filter assembly resulting in the binding of the nucleic acids to the filter. The filter containing nucleic acids was then incubated with DNase I dissolved in DNase incubation buffer to degrade genomic and plasmid DNAs. The column was then rinsed with wash buffer and total RNA then eluted in a new tube for further analysis.
(§6) After the addition of dNTPs, the mixture was denatured at 65° C. for 5 minutes. This was followed by the addition of a master-mix containing 1× superscript buffer, 10 mM DTT, 5 mM Magnesium chloride, RNaseOUT and Superscript III reverse transcriptase. Reactions were carried out at 50° C. for 50 minutes and then terminated by incubation at 85° C. for 5 minutes. cDNA was then treated with RNase-H for 20 minutes at 37° C. to degrade RNA in DNA/RNA hybrid. 1 μl of cDNA was used as template for each subsequent PCR reaction.
(§7) The Denaturation, Annealing and Extension steps were performed 32 cycles for induced fusion RNA and 27 cycles for input RNA.
Data set [5] concerns TMPRSS2-ERG fusion.
Protocol: as §2, §3, §4, §5, §6, §7
In data set [6] the test system is TMPRSS2-ETV1 fusion. Description: RT-PCR detection of induced TMPRSS2-ETV1 fusion transcript in LNCaP cells. It is filed as cell-based, human. As to conditions: LNCaP, two-round nested PCR. As to the method: • 1st Round: Top down PCR with TMPRSS2 ex-1 F1 and ETV1 ex-6 R1 • Denaturation 94° C., 30 sec • Annealing * , 45 sec • Extension 72° C., 60 sec
The Denaturation, Annealing and Extension steps were performed 2 cycles. • 2 cycles at each temperature: 62° C., 61° C., 60° C. . . .
Long Range PCR for Detecting Genomic DNA Fusion Junction

The mark [7] stands for this setting: LNCaP, 4 μg/ml α-amanitin, 0.9 μM DHT.

In the case of `CC[C@H](C)[C@@H]1NC(=O)CNC(=O)[C@@H]2Cc3c([nH]c4cc(O)ccc34)[S+]([O-])C[C@@H](NC(=O)CNC1=O)C(=O)N[C@@H](CC(N)=O)C(=O)N1C[C@H](O)C[C@H]1C(=O)N[C@@H]([C@@H](C)[C@@H](O)CO)C(=O)N2` (stereo in doubt) [α-amanitin, reference compound], the “effect of α-amanitin treatment on TMPRSS2-ERG induction by antisense input RNA” value in data set [1] (lane 1 vs. 5) is listed as “reduced the induction by antisense input RNAs”. The “effect of α-amanitin treatment on TMPRSS2-ETV1 induction by antisense input RNA” value in data set [2] (lane 11 vs. 15) is “reduced the induction by antisense input RNAs”.

B1: SEQ ID NO: 247: chimeric RNA utilizing the SINE element to induce BCR-KCNQ2 fusion, GC content 52% (S1A 200-1 or S1A 200-2) (nucleic acid)
chain: AGCAGGGGGGGCGGTGTCCACACATCCTCACTACGCTGATTTGCCATTTGACTTACACAGTGCAACTCATGTGTTACCAGCCTTCACTGTTCTGACAGCT
modifications: listed as DNA, further chemistry not given here
As for B1, the “induction of BCR-KCNQ2 fusion” value in data set [3] is on record as “induce BCR-KCNQ2 fusion”.

B2: Antisense-2: input RNA, SEQ ID NO: 5 (nucleic acid)
antisense: TGTGCTCGCTTCGGCAGCACATATACTAACATTGGAACGATCCTGCAGCTTGAGCCATTCACCTGGCTAGGGTTACATTCCATATTGATGGTGACCCTGGCTGGGGGTTGAGACAGCCAATCCTGCTGAGGGACGCGTGGGCTCATCTTGGAAGTCTGTCCATAGTCGCTGGAGGAGGACGCGGTCATCTCTGTCTTAGCCAGGTGTGGCGTTCCGTAGGCACACTCAAACAACGACTGGTCCTCACTCACAACTGATAAGGCTTCCTGCCGCGCTCCAGGCGGCGCTCCCCGCCCCTCGCCCTCCGCCTCCGCCTCCGCCTCCTGCTTAGCTCGCGCCTACTC
Regarding B2, the “induction of endogenous TMPRSS2-ERG fusion transcript (RT-PCR)” value in data set [4] is recorded as “induced a clear band of 721 bp; also recorded: capable of inducing the fusion transcript”. Also, the “Cell line(s) identified” value in data set [4] (fusion gene partners TMPRSS2-ERG, LNCaP) is “LNCaP”. Moreover, in data set [5], the “induction with U6 promoter compared to CMV promoter” value is reported as “more pronounced”.

B3: Sense-2: input RNA, SEQ ID NO: 2 (nucleic acid)
sense: TGTGCTCGCTTCGGCAGCACATATACTAACATTGGAACGATCCTGCAGGAGTAGGCGCGAGCTAAGCAGGAGGCGGAGGCGGAGGCGGAGGGCGAGGGGCGGGGAGCGCCGCCTGGAGCGCGGCAGGAAGCCTTATCAGTTGTGAGTGAGGACCAGTCGTTGTTTGAGTGTGCCTACGGAACGCCACACCTGGCTAAGACAGAGATGACCGCGTCCTCCTCCAGCGACTATGGACAGACTTCCAAGATGAGCCCACGCGTCCCTCAGCAGGATTGGCTGTCTCAACCCCCAGCCAGGGTCACCATCAAAATGGAATGTAACCCTAGCCAGGTGAATGGCTCAAG
Consider B3, for which, in data set [4], the “induction of endogenous TMPRSS2-ERG fusion transcript (RT-PCR)” value is recorded as “failed to induce fusion transcripts”.

B4: Sense-TMPRSS2-ETV1-A1: input RNA, SEQ ID NO: 42 (nucleic acid)
sense: TGTGCTCGCTTCGGCAGCACATATACTAACATTGGAACGATCCTGCAGCCAGTTGGTGGAAGAGAGTCCCCCGGGGTCCCCAAAGCTGGCTCCTAGTCTACTGAATCTAACTAAGACTTTAACTTGGAACGATTTACATAATGCGGCA
Turning to B4, in data set [6], the “induction of TMPRSS2-ETV1 fusion transcript (RT-PCR)” value is “failed to induce fusion transcript”. Further, in data set [2] (setting [7]), the “α-amanitin treatment time after which sense input RNA began to induce TMPRSS2-ETV1 fusion” value came to 24 h.

B5: Antisense-C2: input RNA, SEQ ID NO: 19 (nucleic acid)
antisense: TGTGCTCGCTTCGGCAGCACATATACTAACATTGGAACGATCCTGCAGTGAGCTCATGCTATTCCTATGACATAGATGAGCACTGGGTAGACCCCGTCCTGGTAACACTATTCATGCACTAACCAGCACTCCCAGTCCTCCTCCCCAAAGAGAAAAGGCGCACCGGTGCTCCCAG
With B5, the “induction of endogenous TMPRSS2-ERG fusion transcript (RT-PCR)” value in data set [4] is listed as “complete loss of induction”.

B6: Sense-2 Long: input RNA, SEQ ID NO: 3 (nucleic acid)
sense: TGTGCTCGCTTCGGCAGCACATATACTAACATTGGAACGATCCTGCAGGAGTAGGCGCGAGCTAAGCAGGAGGCGGAGGCGGAGGCGGAGGGCGAGGGGCGGGGAGCGCCGCCTGGAGCGCGGCAGGAAGCCTTATCAGTTGTGAGTGAGGACCAGTCGTTGTTTGAGTGTGCCTACGGAACGCCACACCTGGCTAAGACAGAGATGACCGCGTCCTCCTCCAGCGACTATGGACAGACTTCCAAGATGAGCCCACGCGTCCCTCAGCAGGATTGGCTGTCTCAACCCCCAGCCAGGGTCACCATCAAAATGGAATGTAACCCTAGCCAGGTGAATGGCTCAAGGAACTCTCCTGATGAATGCAGTGTGGCCAAAGGCGGGAAGATGGTGGGCAGCCCAGACACCGTTGGGATGAACTACGGCAGCTACATGGAGGAGAAGCACATGCCACCCCCAAACATGACCACGAACGAGCGCAGAGTTATCGTGCCAGCAGATCCTACGCTATGGAGTACAGACCATGTGCGGCAGTGGCTGGAGTGGGCGGTGAAAGAATATGGCCTTCCAGACGTCAACATCTTGTTATTCCAGAACATCGATGGGAAGGAACTGTGCAAGATGACCAAGGACGACTTCCAGAGGCTCACCCCCAGCTACAACGCCGACATCCTTCTCTCACATCTCCACTACCTCAGAGAGACTCCTCTTCCACATTTGACTTCAGATGATGTTGATAAAGCCTTA
Regarding B6, the “induction of endogenous TMPRSS2-ERG fusion transcript (RT-PCR)” value in data set [4] was “failed to induce fusion transcripts”.

B7: Sense-5: input RNA, SEQ ID NO: 29 (nucleic acid)
sense: TGTGCTCGCTTCGGCAGCACATATACTAACATTGGAACGATCCTGCAGGAGTAGGCGCGAGCTTCCATCTCTCACTCCTGTCTGGCGGAGGGCGAGGGGCGGGGAGCGCCGCCTGGAGCGCGGCAGGTGAGCGGCGGATTGGCTGTCTCAACCCCCAGCCAGGGTCACCATCAAAATGGAATGTAACCCTAGCCAGGTGAATGGCTCAAG
Turning to B7, the “induction of endogenous TMPRSS2-ERG fusion transcript (RT-PCR)” value in data set [4] is “fails to induce TMPRSS2-ERG gene fusion”. Besides, the “α-amanitin treatment time after which sense input RNA began to induce TMPRSS2-ERG” value in data set [1] (setting [7]) is 12 h.

B8: Antisense-B3: input RNA, SEQ ID NO: 17 (nucleic acid)
antisense: TGTGCTCGCTTCGGCAGCACATATACTAACATTGGAACGATCCTGCAGTGGGGAGCATTTCCAGATGGAGAAACTGCAAGGAAAAGCATAGAAGTGGGGCCACCCCTCGTGAGCTGGGGAGGGCTCACCTGCCGCGCTCCAGGCGGCGCTCCCCGCCCCTCGCCCTCCGCCTCCG
B8: in data set [4], the “induction of endogenous TMPRSS2-ERG fusion transcript (RT-PCR)” value is on record as “complete loss of induction”.

B9: S1B 10-8: chimeric RNA, BCR-KCNQ2, GC content 60.4% (nucleic acid)
chain: CCAGGTGGAGCTGCCCATGCCTTCCCCGCAGGGCTGAGCCCACTCAGCCGTGAACCAAAGTCCACTAGTCCCATCAAAAGTGCTAACAGGAAGGGGGGATC
modifications: listed as DNA, further chemistry not given here
As to B9, in data set [3], the “induction of BCR-KCNQ2 fusion” value is “induce BCR-KCNQ2 fusion in 293T cells”. Also, in data set [3] (fusion gene partners BCR-KCNQ2, 293T), the “Cell line(s) identified” value was found to be 293T.

These data come from patent US12180473B2, “Chimeric RNA-driven genomic rearrangement in mammalian cells” (priority 2018, dated 2024).
